Measured values taken from paper PMC11555717 (Cancer Medicine, 2024).

Key:
[1] = EV-203 immunogenicity: antitherapeutic antibodies (ATAs) against enfortumab vedotin; assay type: in vivo, human; details: 38 participants tested
Procedure: In the PK cohort (i.e., PK analysis set), intensive PK sampling was performed wherein blood samples for analysis of ADC, total antibody (TAb), and free (unconjugated) MMAE were collected at prespecified time points. […] Blood samples for antitherapeutic antibodies (ATAs) were collected predose on Day 1 of cycles 1 to 4, 6, 8, 10, and within 30–37 days after the last study dose. Validated assays were used to measure concentrations of ADC, TAb, and free MMAE in serum or plasma and to assess ATA levels.
Secondary endpoints were confirmed ORR by investigator assessment; DOR, disease control rate (DCR), and progression‐free survival (PFS) by IRC and investigator assessments; OS; incidence of ATAs to ADC; and safety/tolerability. PFS was defined as the time from the start of the study treatment to the first documentation of objective tumor progression (i.e., progressive disease per RECIST version 1.1) by IRC or investigator assessment (whichever was specified) or to death due to any cause, whichever came first. OS was defined as the time from the start of study treatment to the date of death due to any cause. […] Data for treatment‐related AEs (TRAEs) were evaluated by the investigator.

[2] = EV-203 safety/tolerability: adverse events; assay type: in vivo, human; details: for Treatment-related adverse event: Any: 1.25 mg/kg; for Treatment-related adverse event: Any / Treatment-emergent adverse event: Alopecia / Treatment-emergent adverse event: Anemia / Treatment-emergent adverse event: Any / Treatment-emergent adverse event: Aspartate aminotransferase increased / Treatment-emergent adverse event: Constipation / Treatment-emergent adverse event: Decreased appetite / Treatment-emergent adverse event: Diarrhea / Treatment-emergent adverse event: Hyperglycemia / Treatment-emergent adverse event: Hypokalemia / Treatment-emergent adverse event: Hyponatremia / Treatment-emergent adverse event: Hypophosphatemia / Treatment-emergent adverse event: Nausea / Treatment-emergent adverse event: Neutrophil count decreased / Treatment-emergent adverse event: Pneumonia / Treatment-emergent adverse event: Pruritus / Treatment-emergent adverse event: Pyrexia / Treatment-emergent adverse event: Rash / Treatment-emergent adverse event: Rash maculo-papular / Treatment-emergent adverse event: Vomiting / Treatment-emergent adverse event: White blood cell count decreased / Treatment-related adverse event of special interest: Corneal disorder/blurred vision / Treatment-related adverse event of special interest: Dry eye / Treatment-related adverse event of special interest: Hyperglycemia (composite) / Treatment-related adverse event of special interest: Infusion-related reaction / Treatment-related adverse event of special interest: Peripheral neuropathy (composite) / Treatment-related adverse event of special interest: Skin reaction (composite) / Treatment-related adverse event: Alopecia / Treatment-related adverse event: Anemia / Treatment-related adverse event: Aspartate aminotransferase increased / Treatment-related adverse event: Constipation / Treatment-related adverse event: Decreased appetite / Treatment-related adverse event: Diarrhea / Treatment-related adverse event: Hyperglycemia (preferred term) / Treatment-related adverse event: Hypokalemia / Treatment-related adverse event: Hyponatremia / Treatment-related adverse event: Hypophosphatemia / Treatment-related adverse event: Nausea / Treatment-related adverse event: Neutrophil count decreased / Treatment-related adverse event: Pruritus / Treatment-related adverse event: Rash / Treatment-related adverse event: Rash maculopapular / Treatment-related adverse event: White blood cell count decreased: N = 40
Excerpt: Safety assessments included physical and ophthalmologic examinations, clinical laboratory tests, 12‐lead electrocardiography, and ECOG PS.
PFS was defined as the time from the start of the study treatment to the first documentation of objective tumor progression (i.e., progressive disease per RECIST version 1.1) by IRC or investigator assessment (whichever was specified) or to death due to any cause, whichever came first. OS was defined as the time from the start of study treatment to the date of death due to any cause. […] AEs of special interest were medical concepts of composite terms based on search criteria (standard Medical Dictionary for Regulatory Activities query or sponsor‐specific query/customized Medical Dictionary for Regulatory Activities query). For example, skin reactions included categories of rash and severe cutaneous adverse reactions (which included specific events such as drug eruption, eczema, dermatitis, mouth ulceration, stomatitis, etc.). Data for treatment‐related AEs (TRAEs) were evaluated by the investigator.
All patients who received any amount of study drug were included in the primary analyses of efficacy endpoints and safety analyses.

## enfortumab vedotin: fully human monoclonal ADC directed to Nectin-4, delivering intracellular monomethyl auristatin E (MMAE) to tumor cells
[1]
  Incidence of positive ATAs postbaseline: 0%
[2]; 13 patients
  Treatment-related skin reactions grade 3, patients: 32.5%
[2]; 15 patients, all events grade 1 or 2
  Treatment-related peripheral neuropathy, patients: 37.5%
[2]; 16 of 40 patients
  Serious TRAEs, patients: 40.0%
[2]; 22 of 40 patients
  Dose interruption due to TRAEs, patients: 55.0%
[2]; 25 of 40 patients
  Dose reduction due to TRAEs, patients: 62.5%
[2]; 29 of 40 patients
  Grade 3 or higher TRAEs, patients: 72.5%
[2]; any grade
  Treatment-related adverse event: Any: 40 (100) n (%)
  Treatment-emergent adverse event: Alopecia: 12 (30.0) n (%)
  Treatment-emergent adverse event: Anemia: 28 (70.0) n (%)
  Treatment-emergent adverse event: Any: 40 (100) n (%)
  Treatment-emergent adverse event: Aspartate aminotransferase increased: 26 (65.0) n (%)
  Treatment-emergent adverse event: Constipation: 19 (47.5) n (%)
  Treatment-emergent adverse event: Decreased appetite: 26 (65.0) n (%)
  Treatment-emergent adverse event: Diarrhea: 19 (47.5) n (%)
  Treatment-emergent adverse event: Hyperglycemia: 20 (50.0) n (%)
  Treatment-emergent adverse event: Hypokalemia: 15 (37.5) n (%)
  Treatment-emergent adverse event: Hyponatremia: 13 (32.5) n (%)
  Treatment-emergent adverse event: Hypophosphatemia: 7 (17.5) n (%)
  Treatment-emergent adverse event: Nausea: 20 (50.0) n (%)
  Treatment-emergent adverse event: Neutrophil count decreased: 19 (47.5) n (%)
  Treatment-emergent adverse event: Pneumonia: 5 (12.5) n (%)
  Treatment-emergent adverse event: Pruritus: 14 (35.0) n (%)
  Treatment-emergent adverse event: Pyrexia: 15 (37.5) n (%)
  Treatment-emergent adverse event: Rash: 17 (42.5) n (%)
  Treatment-emergent adverse event: Rash maculo-papular: 6 (15.0) n (%)
  Treatment-emergent adverse event: Vomiting: 12 (30.0) n (%)
  Treatment-emergent adverse event: White blood cell count decreased: 16 (40.0) n (%)
  Treatment-related adverse event of special interest: Corneal disorder/blurred vision: 2 (5.0) n (%)
  Treatment-related adverse event of special interest: Dry eye: 3 (7.5) n (%)
  Treatment-related adverse event of special interest: Hyperglycemia (composite): 22 (55.0) n (%)
  Treatment-related adverse event of special interest: Infusion-related reaction: 2 (5.0) n (%)
  Treatment-related adverse event of special interest: Peripheral neuropathy (composite): 15 (37.5) n (%)
  Treatment-related adverse event of special interest: Skin reaction (composite): 31 (77.5) n (%)
  Treatment-related adverse event: Alopecia: 12 (30.0) n (%)
  Treatment-related adverse event: Anemia: 27 (67.5) n (%)
  Treatment-related adverse event: Aspartate aminotransferase increased: 25 (62.5) n (%)
  Treatment-related adverse event: Constipation: 16 (40.0) n (%)
  Treatment-related adverse event: Decreased appetite: 25 (62.5) n (%)
  Treatment-related adverse event: Diarrhea: 19 (47.5) n (%)
  Treatment-related adverse event: Hyperglycemia (preferred term): 19 (47.5) n (%)
  Treatment-related adverse event: Hypokalemia: 14 (35.0) n (%)
  Treatment-related adverse event: Hyponatremia: 12 (30.0) n (%)
  Treatment-related adverse event: Hypophosphatemia: 7 (17.5) n (%)
  Treatment-related adverse event: Nausea: 20 (50.0) n (%)
  Treatment-related adverse event: Neutrophil count decreased: 19 (47.5) n (%)
  Treatment-related adverse event: Pruritus: 14 (35.0) n (%)
  Treatment-related adverse event: Rash: 17 (42.5) n (%)
  Treatment-related adverse event: Rash maculopapular: 6 (15.0) n (%)
  Treatment-related adverse event: White blood cell count decreased: 16 (40.0) n (%)
[2]; any grade, 22 patients
  Treatment-related hyperglycemia, patients: 55.0%
[2]; any grade, 31 patients
  Treatment-related skin reactions, patients: 77.5%
[2]; four patients
  Treatment-related hyperglycemia grade 3, patients: 10.0%
[2]; grade ≥ 3
  Treatment-related adverse event: Any: 29 (72.5) n (%)
  Treatment-emergent adverse event: Alopecia: 0 n (%)
  Treatment-emergent adverse event: Anemia: 6 (15.0) n (%)
  Treatment-emergent adverse event: Any: 30 (75.0) n (%)
  Treatment-emergent adverse event: Aspartate aminotransferase increased: 1 (2.5) n (%)
  Treatment-emergent adverse event: Constipation: 0 n (%)
  Treatment-emergent adverse event: Decreased appetite: 1 (2.5) n (%)
  Treatment-emergent adverse event: Diarrhea: 2 (5.0) n (%)
  Treatment-emergent adverse event: Hyperglycemia: 3 (7.5) n (%)
  Treatment-emergent adverse event: Hypokalemia: 2 (5.0) n (%)
  Treatment-emergent adverse event: Hyponatremia: 5 (12.5) n (%)
  Treatment-emergent adverse event: Hypophosphatemia: 5 (12.5) n (%)
  Treatment-emergent adverse event: Nausea: 0 n (%)
  Treatment-emergent adverse event: Neutrophil count decreased: 8 (20.0) n (%)
  Treatment-emergent adverse event: Pneumonia: 5 (12.5) n (%)
  Treatment-emergent adverse event: Pruritus: 2 (5.0) n (%)
  Treatment-emergent adverse event: Pyrexia: 0 n (%)
  Treatment-emergent adverse event: Rash: 5 (12.5) n (%)
  Treatment-emergent adverse event: Rash maculo-papular: 4 (10.0) n (%)
  Treatment-emergent adverse event: Vomiting: 0 n (%)
  Treatment-emergent adverse event: White blood cell count decreased: 5 (12.5) n (%)
  Treatment-related adverse event of special interest: Corneal disorder/blurred vision: 0 n (%)
  Treatment-related adverse event of special interest: Dry eye: 0 n (%)
  Treatment-related adverse event of special interest: Hyperglycemia (composite): 5 (12.5) n (%)
  Treatment-related adverse event of special interest: Infusion-related reaction: 0 n (%)
  Treatment-related adverse event of special interest: Peripheral neuropathy (composite): 0 n (%)
  Treatment-related adverse event of special interest: Skin reaction (composite): 13 (32.5) n (%)
  Treatment-related adverse event: Alopecia: 0 n (%)
  Treatment-related adverse event: Anemia: 6 (15.0) n (%)
  Treatment-related adverse event: Aspartate aminotransferase increased: 1 (2.5) n (%)
  Treatment-related adverse event: Constipation: 0 n (%)
  Treatment-related adverse event: Decreased appetite: 1 (2.5) n (%)
  Treatment-related adverse event: Diarrhea: 2 (5.0) n (%)
  Treatment-related adverse event: Hyperglycemia (preferred term): 3 (7.5) n (%)
  Treatment-related adverse event: Hypokalemia: 2 (5.0) n (%)
  Treatment-related adverse event: Hyponatremia: 5 (12.5) n (%)
  Treatment-related adverse event: Hypophosphatemia: 4 (10.0) n (%)
  Treatment-related adverse event: Nausea: 0 n (%)
  Treatment-related adverse event: Neutrophil count decreased: 8 (20.0) n (%)
  Treatment-related adverse event: Pruritus: 2 (5.0) n (%)
  Treatment-related adverse event: Rash: 5 (12.5) n (%)
  Treatment-related adverse event: Rash maculopapular: 4 (10.0) n (%)
  Treatment-related adverse event: White blood cell count decreased: 5 (12.5) n (%)
[2]; most common TRAE leading to dose interruption
  Dose interruption due to fatigue, patients: 10.0%
[2]; most common TRAE leading to dose reduction
  Dose reduction due to rash, patients: 22.5%
[2]; one patient
  Hyperglycemia leading to treatment discontinuation, patients: 2.5%
  Treatment-related hyperglycemia grade 4, patients: 2.5%
[2]; one patient, acute coronary syndrome
  Death due to a TRAE, patients: 2.5%
[2]; two patients: acute coronary syndrome, hyperglycemia and rash
  Treatment discontinuation due to TRAEs, patients: 5.0%
[2]; two patients, not considered treatment-related
  Deaths following malignant neoplasm progression, patients: 5.0%
